Experimental findings from doi:10.1101/681668 (bioRxiv, 2019) are described below.

The target of the test is T1, MBP-ORC2 (human, UniProt Q13416 1-577).
T1 sequence: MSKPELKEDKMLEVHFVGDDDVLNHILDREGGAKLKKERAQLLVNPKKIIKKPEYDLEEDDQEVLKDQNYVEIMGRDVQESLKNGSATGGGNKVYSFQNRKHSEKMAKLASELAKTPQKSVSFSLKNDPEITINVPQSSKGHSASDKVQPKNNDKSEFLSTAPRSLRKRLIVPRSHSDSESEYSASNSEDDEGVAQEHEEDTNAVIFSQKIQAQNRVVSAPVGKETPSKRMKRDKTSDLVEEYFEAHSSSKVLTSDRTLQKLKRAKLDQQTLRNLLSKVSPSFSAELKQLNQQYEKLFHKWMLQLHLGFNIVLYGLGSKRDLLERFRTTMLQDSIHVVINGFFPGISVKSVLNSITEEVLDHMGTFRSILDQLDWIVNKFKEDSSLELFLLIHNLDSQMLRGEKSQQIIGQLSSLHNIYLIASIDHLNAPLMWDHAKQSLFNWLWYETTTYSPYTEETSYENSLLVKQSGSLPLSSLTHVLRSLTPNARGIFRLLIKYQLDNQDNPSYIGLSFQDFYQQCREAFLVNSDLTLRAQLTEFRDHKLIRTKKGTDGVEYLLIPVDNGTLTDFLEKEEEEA
Briefly: pull-down.

B1: GST-CDC6 (natural protein)
chain: MPQTRSQAQATISFPKRKLSRALNKAKNSSDAKLEPTNVQTVTCSPRVKALPLSPRKRLGDDNLCNTPHLPPCSPPKQGKKENGPPHSHTLKGRRLVFDNQLTIKSPSKRELAKVHQNKILSSVRKSQEITTNSEQRCPLKKESACVRLFKQEGTCYQQAKLVLNTAVPDRLPAREREMDVIRNFLREHICGKKAGSLYLSGAPGTGKTACLSRILQDLKKELKGFKTIMLNCMSLRTAQAVFPAIAQEICQEEVSRPAGKDMMRKLEKHMTAEKGPMIVLVLDEMDQLDSKGQDVLYTLFEWPWLSNSHLVLIGIANTLDLTDRILPRLQAREKCKPQLLNFPPYTRNQIVTILQDRLNQVSRDQVLDNAAVQFCARKVSAVSGDVRKALDVCRRAIEIVESDVKSQTILKPLSECKSPSEPLIPKRVGLIHISQVISEVDGNRMTLSQEGAQDSFPLQQKILVCSLMLLIRQLKIKEVTLGKLYEAYSKVCRKQQVAAVDQSECLSLSGLLEARGILGLKRNKETRLTKVFFKIEEKEIEHALKDKALIGNILATGLP
For the molecule B1, the binding result is “binds”.
